These results are taken from PMC8649396.

Assay [1] deals with Phthalate dioxygenase from Comamonas testosteroni KF1 (PDOKF1), as crystallised (Comamonas testosteroni KF1). Nature of the assay: crystal structure.
The target in assay [2] is Rieske oxygenase from Cupriavidus metallidurans CH34 (RO_CH34) (Cupriavidus metallidurans CH34). Nature of the assay: SEC.
The target is the same in assay [3]. Nature of the assay: crystal structure.
Assay [4] has as its target His-tagged phthalate dioxygenase from Comamonas testosteroni KF1 (Ht-PDOKF1) (Comamonas testosteroni KF1). Nature of the assay: SEC.

As usually defined, the stoichiometry N is a count of units in the complex or per binding partner. “Phthalate dioxygenase from Comamonas testosteroni KF1 (PDOKF1), as crystallised (enzyme)” showed a stoichiometry N in assay [1] of 6.
In the case of “Rieske oxygenase from Cupriavidus metallidurans CH34 (RO_CH34) (enzyme)”, the stoichiometry N in assay [2] and in assay [3] was 3 each time.
“His-tagged phthalate dioxygenase from Comamonas testosteroni KF1 (Ht-PDOKF1) (enzyme)” had a stoichiometry N in assay [4] of 6.
